In test [1] the target is Recombinant soluble human CD62L N104E mutant (residues 1-194, C-terminal six-histidine tag) (human) (UniProt P14151). The test can be described thus: SPR. Background: SPR reads the build-up and loss of mass on a sensor chip optically.
Test [2] concerns the target Commercial CD62L from R&D systems, Inc. (human) (UniProt P14151). Description: SPR.

We go through 1 substance from paper PMC4385751.

What is called Kd is a measure of binding affinity in units of concentration.

Consider “type III porcine submaxillary mucin (PSM-III) (natural protein)”, for which the Kd in test [1] stood at 44 µM; in test [2] it was 27 µM.
